Article doi:10.1101/2021.12.02.470928
Read-outs that look alike come from different tables or passages of the source.

Assays:
Experiment in all cases: BLI
[1] = biological target: PAD M141W (UniProt Q96QC0)
[2] = biological target: PAD A114K (UniProt Q96QC0)
[3] = biological target: PAD K109A (UniProt Q96QC0)
[4] = biological target: PAD K118A (UniProt Q96QC0)
[5] = biological target: PAD K122A (UniProt Q96QC0)
[6] = biological target: PAD M141F (UniProt Q96QC0)
[7] = biological target: PAD M141W (UniProt Q96QC0); remark: listed apart in the source
[8] = biological target: PAD M141F (UniProt Q96QC0); remark: listed apart in the source
[9] = biological target: PAD K122A (UniProt Q96QC0); remark: listed apart in the source
[10] = biological target: PAD A114K (UniProt Q96QC0); remark: listed apart in the source

Sequence of PAD M141W (Q96QC0 1-148 M141W): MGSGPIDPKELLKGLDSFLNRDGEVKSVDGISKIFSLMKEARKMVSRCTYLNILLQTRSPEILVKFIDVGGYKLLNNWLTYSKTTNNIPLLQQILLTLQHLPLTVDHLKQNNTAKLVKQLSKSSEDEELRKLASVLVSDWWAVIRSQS
Sequence of PAD M141F (Q96QC0 1-148 M141F): as the sequence (Q96QC0 1-148 M141W) above, with W141F counted along it
Sequence of PAD A114K (Q96QC0 1-148 A114K): as the sequence (Q96QC0 1-148 M141W) above, with A114K, W141M counted along it
Sequence of PAD K122A (Q96QC0 1-148 K122A): as the sequence (Q96QC0 1-148 M141W) above, with K122A, W141M counted along it
Sequence of PAD K118A (Q96QC0 1-148 K118A): as the sequence (Q96QC0 1-148 M141W) above, with K118A, W141M counted along it
Sequence of PAD K109A (Q96QC0 1-148 K109A): as the sequence (Q96QC0 1-148 M141W) above, with K109A, W141M counted along it

## biotinyl-MB0 peptide (MYC 16-33) (from UniProt P01106-2 16-33)
[1]
  Kd: 24 µM
[2]
  Kd: 52 µM
[3]
  Kd: 27 µM
[4]
  Kd: 12 µM
[5]
  Kd: 35 µM
[6]
  Kd: 19 µM
[7]
  Kd: 24 µM
[8]
  Kd: 19 µM
[9]
  Kd: 35 µM
[10]
  Kd: 52 µM
